Measured values taken from the supplement of paper PMC6757056.
± gives the standard deviation of the averaged measurements.

B1: library; a variant is named by its letters at N, in order (parent)
chain: GCUGUCACCGGUGCUUGGUACGUUAUAUUCAGCCGGUCUGAUGAGUCUNNNNNNAGACGAAACAGC

Experiments:
(6R,S)-folinic acid [1] = variants of: B1; assay: FACS-Seq fitted mean relative fluorescence mCherry/BFP without ligand (log10 relative fluorescence); HEK293T overexpressing SLC46A1; higher = higher reporter protein expression; details: without (6R,S)-folinic acid; ligand present: no
Description: (§1)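 Hammerhead (sTRSV) ribozyme switch libraries with a ligand aptamer grafted on stem I and a randomized N4-6 loop II, cloned into the 3' UTR of mCherry and transiently transfected into HEK293T cells; RNA-Seq 72 h post transfection with ligand added 1 h before transfection; RNA read count / plasmid DNA read count normalized to the non-cleaving sTRSVctl (x100), log10; sequences with >100 DNA reads. FACS-Seq: lentiviral library sorted into 6 bins after 48 h ligand, log-normal fit mean of mCherry/BFP scaled to controls. Printed sequences are partial switch sequences.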

(6R,S)-folinic acid [2] = variants of: B1; assay: normalized RNA/DNA level without ligand (relative to sTRSVctl = 100) (log10 (% of sTRSVctl)); HEK293T overexpressing SLC46A1; higher = less ribozyme self-cleavage, higher mRNA level; details: without (6R,S)-folinic acid; ligand present: no
Description: as §1

(6R,S)-folinic acid [3] = variants of: B1; assay: FACS-Seq fitted mean relative fluorescence mCherry/BFP with ligand (log10 relative fluorescence); HEK293T overexpressing SLC46A1; ligand concentration (+) FACS-Seq: 6 mM; higher = higher reporter protein expression; details: with (6R,S)-folinic acid; ligand present: yes
Description: as §1

(6R,S)-folinic acid [4] = variants of: B1; assay: normalized RNA/DNA level with ligand (relative to sTRSVctl = 100) (log10 (% of sTRSVctl)); HEK293T overexpressing SLC46A1; ligand concentration (+) RNA-Seq: 6 mM; higher = less ribozyme self-cleavage, higher mRNA level; details: with (6R,S)-folinic acid; ligand present: yes
Description: as §1

| Variant | FACS-Seq fitted mean (log10) ((6R,S)-folinic acid [1]) | normalized RNA/DNA level without ligand (log10) ((6R,S)-folinic acid [2]) | FACS-Seq fitted mean (log10) ((6R,S)-folinic acid [3]) | normalized RNA/DNA level with ligand (log10) ((6R,S)-folinic acid [4]) |
| --- | --- | --- | --- | --- |
| CAACGA | 0.682 ± 0.03 | 2.008 ± 0.0085 | 0.653 ± 0.17 | 2.005 ± 0.018 |
| GAAUUA | 0.508 ± 0.088 | 2.0059 ± 0.0002 | 0.572 ± 0.15 | 2.03 ± 0.031 |
| GAAUUG | 0.416 ± 0.035 | 1.928 ± 0.0066 | 0.46 ± 0.014 | 2 ± 0.066 |
| UACAGA | 0.358 ± 0.072 | 1.913 ± 0.011 | 0.548 ± 0.15 | 1.99 ± 0.037 |
| UACAGU | 0.183 ± 0.13 | 1.92 ± 0.021 | 0.133 ± 0.26 | 1.994 ± 0.0074 |
| UACAGG | 0.254 ± 0.021 | 1.661 ± 0.0093 | 0.489 ± 0.051 | 1.96 ± 0.033 |
| AAAGUG | -0.0552 ± 0.019 | 1.675 ± 0.0049 | 0.25 ± 0.14 | 1.95 ± 0.031 |
| AAAGUC | 0.0964 ± 0.057 | 2.066 ± 0.014 | 0.235 ± 0.08 | 2.03 ± 0.047 |
| CAAUUC | -0.0653 ± 0.041 | 2.019 ± 0.012 | -0.136 ± 0.18 | 1.998 ± 0.016 |
| CAAUUA | 0.413 ± 0.065 | 1.963 ± 0.016 | 0.429 ± 0.07 | 1.989 ± 0.015 |
| AAAUUG | 0.0771 ± 0.044 | 1.921 ± 0.0078 | 0.102 ± 0.18 | 2.02 ± 0.061 |
| AAAUUC | 0.629 ± 0.14 | 2.03 ± 0.0039 | 0.471 ± 0.059 | 2.018 ± 0.016 |
| AAAUUU | 0.415 ± 0.0088 | 2.053 ± 0.0076 | 0.218 ± 0.093 | 2.05 ± 0.039 |
| AAACCA | 0.226 ± 0.23 | 2 ± 0.01 | 0.0655 ± 0.071 | 2 ± 0.03 |
| UAAGUG | 0.502 ± 0.074 | 1.6686 ± 0.0006 | 0.881 ± 0.18 | 1.93 ± 0.055 |
| UAAGUU | 0.118 ± 0.029 | 1.952 ± 0.0089 | 0.124 ± 0.17 | 2.01 ± 0.041 |
| UAAGUC | 0.228 ± 0.093 | 2.0619 ± 0.00099 | 0.173 ± 0.12 | 2.038 ± 0.0091 |
| GAAGGC | 0.492 ± 0.035 | 1.951 ± 0.006 | 0.635 ± 0.019 | 2.009 ± 0.0033 |
| AAAUGG | 0.445 ± 0.096 | 1.87 ± 0.0028 | 0.499 ± 0.072 | 2 ± 0.031 |
| AAAUGC | 0.594 ± 0.028 | 2.03 ± 0.007 | 0.713 ± 0.3 | 2.03 ± 0.033 |
| AAAUGA | 0.485 ± 0.018 | 1.963 ± 0.005 | 0.406 ± 0.022 | 2.04 ± 0.044 |
| GAAGAC | 0.635 ± 0.035 | 1.97 ± 0.0057 | 0.574 ± 0.24 | 2.03 ± 0.025 |
| GAAGAU | 0.124 ± 0.065 | 1.968 ± 0.0035 | 0.379 ± 0.13 | 2.03 ± 0.032 |
| GAAGAG | 0.0515 ± 0.088 | 1.837 ± 0.0055 | 0.356 ± 0.15 | 2.03 ± 0.034 |

| Variant | FACS-Seq fitted mean (log10) ((6R,S)-folinic acid [1]) | normalized RNA/DNA level without ligand (log10) ((6R,S)-folinic acid [2]) | FACS-Seq fitted mean (log10) ((6R,S)-folinic acid [3]) | normalized RNA/DNA level with ligand (log10) ((6R,S)-folinic acid [4]) |
| --- | --- | --- | --- | --- |
| GAAGAA | -0.708 ± 0.014 | 1.973 ± 0.0039 | -0.827 ± 0.004 | 2.03 ± 0.04 |
| UACACA | 0.187 ± 0.0057 | 1.974 ± 0.012 | -0.044 ± 0.049 | 1.9892 ± 0.0017 |
| UACACG | 0.231 ± 0.14 | 1.808 ± 0.0037 | 0.348 ± 0.022 | 1.95 ± 0.053 |
| UAAGCG | 0.384 ± 0.026 | 1.736 ± 0.0051 | 0.777 ± 0.031 | 1.96 ± 0.045 |
| UAAGCU | 0.334 ± 0.089 | 1.992 ± 0.014 | 0.436 ± 0.13 | 2.021 ± 0.0075 |
| UAAGCA | 0.463 ± 0.0091 | 1.9355 ± 0.00085 | 0.377 ± 0.12 | 1.99 ± 0.021 |
| UAAAGU | 0.553 ± 0.0074 | 1.886 ± 0.0062 | 0.894 ± 0.26 | 1.99 ± 0.045 |
| UAAAGC | 0.217 ± 0.12 | 1.973 ± 0.017 | 0.319 ± 0.15 | 2 ± 0.06 |
| UAAAGA | 0.265 ± 0.1 | 1.88 ± 0.019 | 0.312 ± 0.088 | 1.99 ± 0.029 |
| UAAAGG | 0.0807 ± 0.018 | 1.631 ± 0.0062 | 0.507 ± 0.13 | 1.94 ± 0.035 |
| GAAGCA | 0.272 ± 0.031 | 1.967 ± 0.015 | 0.486 ± 0.021 | 2 ± 0.024 |
| GAAGCU | 0.0826 ± 0.071 | 2.018 ± 0.015 | 0.0358 ± 0.15 | 2.04 ± 0.022 |
| GAAGCG | 0.117 ± 0.13 | 1.929 ± 0.012 | 0.259 ± 0.065 | 2.02 ± 0.034 |
| AAACUG | 0.318 ± 0.15 | 1.933 ± 0.0021 | 0.151 ± 0.091 | 2 ± 0.037 |
| GAACCU | -0.507 ± 0.14 | 2.02 ± 0.0076 | -0.0321 ± 0.22 | 2.02 ± 0.04 |
| AACACG | 0.361 ± 0.13 | 1.938 ± 0.0019 | 0.436 ± 0.18 | 2 ± 0.045 |
| GACAUA | 0.346 ± 0.14 | 1.984 ± 0.0071 | 0.3032 ± 0.002 | 2.01 ± 0.044 |
| GACAUU | 0.457 ± 0.096 | 2.024 ± 0.013 | 0.529 ± 0.11 | 2 ± 0.064 |
| UAACUG | 0.401 ± 0.0068 | 1.846 ± 0.015 | 0.499 ± 0.1 | 2 ± 0.024 |
| UAACUA | 0.248 ± 0.065 | 1.98 ± 0.027 | 0.41 ± 0.11 | 2.03 ± 0.028 |
| UAACUU | 0.511 ± 0.0079 | 1.994 ± 0.011 | 0.408 ± 0.12 | 2 ± 0.045 |
| UAAGAG | 0.104 ± 0.05 | 1.667 ± 0.0094 | 0.3 ± 0.061 | 1.96 ± 0.038 |
| UAAGAA | 0.023 ± 0.078 | 1.882 ± 0.011 | -0.19 ± 0.37 | 1.96 ± 0.022 |
| UAAUAU | 0.201 ± 0.005 | 1.922 ± 0.0069 | 0.297 ± 0.077 | 1.99 ± 0.026 |

| Variant | FACS-Seq fitted mean (log10) ((6R,S)-folinic acid [1]) | normalized RNA/DNA level without ligand (log10) ((6R,S)-folinic acid [2]) | FACS-Seq fitted mean (log10) ((6R,S)-folinic acid [3]) | normalized RNA/DNA level with ligand (log10) ((6R,S)-folinic acid [4]) |
| --- | --- | --- | --- | --- |
| UAAUAG | 0.255 ± 0.04 | 1.75 ± 0.028 | 0.58 ± 0.11 | 1.96 ± 0.057 |
| CACACU | 0.136 ± 0.099 | 2.008 ± 0.011 | 0.187 ± 0.057 | 2.03 ± 0.011 |
| CACACA | 0.66 ± 0.12 | 1.97 ± 0.026 | 0.319 ± 0.036 | 1.98 ± 0.031 |
| UAAAUG | 0.33 ± 0.034 | 1.7477 ± 0.001 | 0.685 ± 0.3 | 1.95 ± 0.039 |
| UACAAU | 0.467 ± 0.071 | 1.95 ± 0.02 | 0.559 ± 0.071 | 2 ± 0.026 |
| UACAAG | 0.55 ± 0.1 | 1.74 ± 0.032 | 0.813 ± 0.031 | 1.94 ± 0.032 |
| UACAAA | 0.165 ± 0.11 | 1.9485 ± 0.00073 | 0.179 ± 0.031 | 1.99 ± 0.019 |
| UAACCG | 0.215 ± 0.047 | 1.8952 ± 0.00059 | 0.522 ± 0.21 | 2.01 ± 0.028 |
| UAACCA | 0.441 ± 0.11 | 2.007 ± 0.0037 | 0.274 ± 0.073 | 1.98 ± 0.0045 |
| AAAUAU | 0.147 ± 0.058 | 1.949 ± 0.002 | 0.275 ± 0.077 | 2 ± 0.039 |
| AAAUAC | 0.31 ± 0.028 | 1.988 ± 0.0076 | 0.0315 ± 0.22 | 2 ± 0.03 |
| AAAUAG | -0.0965 ± 0.1 | 1.903 ± 0.006 | -0.332 ± 0.53 | 1.98 ± 0.022 |
| AAAUAA | 0.0525 ± 0.017 | 1.94 ± 0.023 | 0.383 ± 0.051 | 1.98 ± 0.038 |
| GAAUGG | 0.297 ± 0.079 | 1.89 ± 0.013 | 0.386 ± 0.37 | 2.03 ± 0.019 |
| GAAUGA | 0.25 ± 0.057 | 1.992 ± 0.0057 | 0.299 ± 0.2 | 2.02 ± 0.022 |
| UAACAG | 0.325 ± 0.2 | 1.829 ± 0.015 | 0.463 ± 0.16 | 1.952 ± 0.017 |
| UAACAC | 0.349 ± 0.11 | 2.008 ± 0.0029 | 0.223 ± 0.22 | 2.01 ± 0.046 |
| UAACAA | 0.381 ± 0.053 | 1.95 ± 0.02 | 0.18 ± 0.0065 | 2 ± 0.037 |
| CAAGAG | 0.355 ± 0.047 | 1.903 ± 0.013 | 0.365 ± 0.14 | 1.98 ± 0.024 |
| CAAGAA | 0.425 ± 0.21 | 1.95 ± 0.0095 | 0.427 ± 0.2 | 2 ± 0.024 |
| GAAUCG | 0.149 ± 0.053 | 1.966 ± 0.0024 | 0.372 ± 0.14 | 2 ± 0.022 |
| GAAUCA | 0.429 ± 0.13 | 2.017 ± 0.005 | 0.409 ± 0.051 | 2.01 ± 0.03 |
| AAAGCG | 0.0389 ± 0.01 | 1.743 ± 0.0089 | 0.352 ± 0.079 | 1.989 ± 0.013 |
| AAAGCA | 0.3689 ± 0.0015 | 1.975 ± 0.0052 | 0.575 ± 0.35 | 1.98 ± 0.044 |
